Non-standard residues stand in square brackets, D forms with d. No end group written: not given here.
Target: T1, Hexokinase II (HK-II), purified (UniProt P52789 1-917, fluorescently labeled using the NanoTemper protein-labeling Kit BLUE)
T1 construct: hexokinase II (HK-II)
T1 sequence (looked up): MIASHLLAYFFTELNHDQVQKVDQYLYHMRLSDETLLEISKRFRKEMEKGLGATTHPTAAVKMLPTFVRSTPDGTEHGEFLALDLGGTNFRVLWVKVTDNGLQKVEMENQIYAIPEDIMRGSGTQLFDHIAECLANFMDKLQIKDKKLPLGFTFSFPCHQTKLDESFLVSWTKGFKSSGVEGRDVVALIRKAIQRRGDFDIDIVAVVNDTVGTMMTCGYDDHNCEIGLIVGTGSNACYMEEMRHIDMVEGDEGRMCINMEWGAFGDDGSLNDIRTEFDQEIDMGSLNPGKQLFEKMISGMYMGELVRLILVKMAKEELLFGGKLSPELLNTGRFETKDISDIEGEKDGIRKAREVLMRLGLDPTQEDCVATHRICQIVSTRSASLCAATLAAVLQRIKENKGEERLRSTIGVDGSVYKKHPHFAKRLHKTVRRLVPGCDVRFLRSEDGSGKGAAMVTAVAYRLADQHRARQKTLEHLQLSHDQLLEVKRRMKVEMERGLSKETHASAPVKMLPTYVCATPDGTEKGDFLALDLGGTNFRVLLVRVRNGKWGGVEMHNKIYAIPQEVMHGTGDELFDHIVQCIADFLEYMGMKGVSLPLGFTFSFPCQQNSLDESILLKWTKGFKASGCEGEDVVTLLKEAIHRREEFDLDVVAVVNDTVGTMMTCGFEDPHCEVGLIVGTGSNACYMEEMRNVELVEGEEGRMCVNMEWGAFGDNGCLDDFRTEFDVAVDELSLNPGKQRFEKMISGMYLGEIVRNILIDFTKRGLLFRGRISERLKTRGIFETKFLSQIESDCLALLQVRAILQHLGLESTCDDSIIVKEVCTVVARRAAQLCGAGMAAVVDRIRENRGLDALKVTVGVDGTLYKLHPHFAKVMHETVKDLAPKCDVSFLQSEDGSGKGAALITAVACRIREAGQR
Assay: MST; HK-II (100 nM), fluorescently labelled (NanoTemper Kit BLUE), incubated with Tf-D-LP4 (1-100 μM) for 20 min; MST-grade glass capillaries, Monolith-NT115
Settings: both partners purified

Kd: 16.6 µM
B1: Tf-D-LP4 (peptide)
peptide: HAIYPRHSWTWE[dK][dK][dL][dE][dT][dA][dV][dN][dL][dA][dW][dT][dA]G[dN][dS][dN]KWTWK
notes: L-amino acids; amino acids added to form a loop-shaped tryptophan zipper (N-terminal half); amino acids added to form a loop-shaped tryptophan zipper (C-terminal half); 34 residues in all; the VDAC1-derived stretch is made of D-amino acids, the rest of L-amino acids; also called VDAC1-based peptide; Tf-D-LP4 peptide; source: synthetic peptide (GL Biochem, Shanghai, >95% purity), dissolved in DMSO

Source: paper PMC5458211, “Mitochondrial VDAC1-based peptides: Attacking oncogenic properties in glioblastoma” (Oncotarget, 2017)
